B1: Mitochondrial import inner membrane translocase subunit Tim8 A (Homo sapiens), O60220 (parent)
chain: MDSSSSSSAAGLGAVDPQLQHFIEVETQKQRFQQLVHQMTELCWEKCMDKPGPKLDSRAEACFVNCVERFIDTSQFILNRLEQTQKSKPVFSESLSD
B2: Corrinoid adenosyltransferase MMAB (Homo sapiens), Q96EY8 (parent)
chain: MAVCGLGSRLGLGSRLGLRGCFGAARLLYPRFQSRGPQGVEDGDRPQPSSKTPRIPKIYTKTGDKGFSSTFTGERRPKDDQVFEAVGTTDELSSAIGFALELVTEKGHTFAEELQKIQCTLQDVGSALATPCSSAREAHLKYTTFKAGPILELEQWIDKYTSQLPPLTAFILPSGGKISSALHFCRAVCRRAERRVVPLVQMGETDANVAKFLNRLSDYLFTLARYAAMKEGNQEKIYMKNDPSAESEGL
partner: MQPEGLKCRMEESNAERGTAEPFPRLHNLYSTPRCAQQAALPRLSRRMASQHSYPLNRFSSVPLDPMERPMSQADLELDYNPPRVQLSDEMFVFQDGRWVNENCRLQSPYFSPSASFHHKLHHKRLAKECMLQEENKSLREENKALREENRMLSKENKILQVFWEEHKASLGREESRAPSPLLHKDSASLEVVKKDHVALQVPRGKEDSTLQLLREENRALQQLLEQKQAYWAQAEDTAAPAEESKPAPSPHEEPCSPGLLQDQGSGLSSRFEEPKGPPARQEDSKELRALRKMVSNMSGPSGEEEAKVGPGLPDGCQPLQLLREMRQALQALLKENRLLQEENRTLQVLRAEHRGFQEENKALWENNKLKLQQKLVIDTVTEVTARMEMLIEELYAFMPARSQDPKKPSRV
B3: ATP synthase mitochondrial F1 complex assembly factor 2 (Homo sapiens), Q8N5M1 (parent)
chain: MWRSCLRLRDGGRRLLNRPAGGPSASMSPGPTIPSPARAYAPPTERKRFYQNVSITQGEGGFEINLDHRKLKTPQAKLFTVPSEALAIAVATEWDSQQDTIKYYTMHLTTLCNTSLDNPTQRNKDQLIRAAVKFLDTDTICYRVEEPETLVELQRNEWDPIIEWAEKRYGVEISSSTSIMGPSIPAKTREVLVSHLASYNTWALQGIEFVAAQLKSMVLTLGLIDLRLTVEQAVLLSRLEEEYQIQKWGNIEWAHDYELQELRARTAAGTLFIHLCSESTTVKHKLLKE
partner: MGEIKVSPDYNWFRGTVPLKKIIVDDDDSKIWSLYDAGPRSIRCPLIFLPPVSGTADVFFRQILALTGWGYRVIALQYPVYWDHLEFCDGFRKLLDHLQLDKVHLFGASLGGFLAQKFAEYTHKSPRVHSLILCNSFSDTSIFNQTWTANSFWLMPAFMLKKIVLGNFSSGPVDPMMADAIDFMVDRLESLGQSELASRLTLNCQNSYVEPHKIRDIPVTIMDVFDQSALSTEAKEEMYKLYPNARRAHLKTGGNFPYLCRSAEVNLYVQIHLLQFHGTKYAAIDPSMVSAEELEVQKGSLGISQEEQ
B4: Sodium/myo-inositol cotransporter 2 (Homo sapiens), Q8WWX8-3 (parent)
chain: MVWWPVGASLFASNVGSGHFIGLAGSGAATGISVSAYELNGLFSVLMLAWIFLPIYIAGQVTTMPEYLRKRFGGIRIPIILAVLYLFIYIFTKISVDMYAGAIFIQQSLHLDLYLAIVGLLAITAVYTVAGGLAAVIYTDALQTLIMLIGALTLMGYSFAAVGGMEGLKEKYFLALASNRSENSSCGLPREDAFHIFRDPLTSDLPWPGVLFGMSIPSLWYWCTDQVIVQRTLAAKNLSHAKGGALMAAYLKVLPLFIMVFPGMVSRILFPDQVACADPEICQKICSNPSGCSDIAYPKLVLELLPTGLRGLMMAVMVAALMSSLTSIFNSASTIFTMDLWNHLRPRASEKELMIVGRVFVLLLVLVSILWIPVVQASQGGQLFIYIQSISSYLQPPVAVVFIMGCFWKRTNEKGAFWGLISGLLLGLVRLVLDFIYVQPRCDQPDERPVLVKSIHYLYFSMILSTVTLITVSTVSWFTEPPSKEMVSHLTWFTRHDPVVQKEQAPPAAPLSLTLSQNGMPEASSSSSVQFEMVQENTSKTHSCDMTPKQSKVVKAILWLCGIQEKGKEELPARAEAIIVSLEENPLVKTLLDVNLIFCVSCAIFIWGYFA
B5: U4/U6 small nuclear ribonucleoprotein Prp31 (Homo sapiens), Q8WWY3 (parent)
chain: MSLADELLADLEEAAEEEEGGSYGEEEEEPAIEDVQEETQLDLSGDSVKTIAKLWDSKMFAEIMMKIEEYISKQAKASEVMGPVEAAPEYRVIVDANNLTVEIENELNIIHKFIRDKYSKRFPELESLVPNALDYIRTVKELGNSLDKCKNNENLQQILTNATIMVVSVTASTTQGQQLSEEELERLEEACDMALELNASKHRIYEYVESRMSFIAPNLSIIIGASTAAKIMGVAGGLTNLSKMPACNIMLLGAQRKTLSGFSSTSVLPHTGYIYHSDIVQSLPPDLRRKAARLVAAKCTLAARVDSFHESTEGKVGYELKDEIERKFDKWQEPPPVKQVKPLPAPLDGQRKKRGGRRYRKMKERLGLTEIRKQANRMSFGEIEEDAYQEDLGFSLGHLGKSGSGRVRQTQVNEATKARISKTLQRTLQKQSVVYGGKSTIRDRSSGTASSVAFTPLQGLEIVNPQAAEKKVAEANQKYFSSMAEFLKVKGEKSGLMST
partner: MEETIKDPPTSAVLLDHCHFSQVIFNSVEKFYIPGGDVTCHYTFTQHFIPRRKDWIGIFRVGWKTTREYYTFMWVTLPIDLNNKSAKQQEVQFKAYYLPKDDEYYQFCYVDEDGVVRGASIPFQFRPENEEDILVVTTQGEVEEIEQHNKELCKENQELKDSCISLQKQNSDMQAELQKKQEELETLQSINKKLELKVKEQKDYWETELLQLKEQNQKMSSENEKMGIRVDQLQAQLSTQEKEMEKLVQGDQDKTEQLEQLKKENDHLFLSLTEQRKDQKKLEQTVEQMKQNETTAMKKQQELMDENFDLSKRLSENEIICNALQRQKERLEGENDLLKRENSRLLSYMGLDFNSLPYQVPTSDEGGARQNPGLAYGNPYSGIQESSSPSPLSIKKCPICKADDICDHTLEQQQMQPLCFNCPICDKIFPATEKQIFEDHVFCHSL
B6: Forkhead box protein P3 (Homo sapiens), Q9BZS1 (parent)
chain: MPNPRPGKPSAPSLALGPSPGASPSWRAAPKASDLLGARGPGGTFQGRDLRGGAHASSSSLNPMPPSQLQLPTLPLVMVAPSGARLGPLPHLQALLQDRPHFMHQLSTVDAHARTPVLQVHPLESPAMISLTPPTTATGVFSLKARPGLPPGINVASLEWVSREPALLCTFPNPSAPRKDSTLSAVPQSSYPLLANGVCKWPGCEKVFEEPEDFLKHCQADHLLDEKGRAQCLLQREMVQSLEQQLVLEKEKLSAMQAHLAGKMALTKASSVASSDKGSCCIVAAGSQGPVVPAWSGPREAPDSLFAVRRHLWGSHGNSTFPEFLHNMDYFKFHNMRPPFTYATLIRWAILEAPEKQRTLNEIYHWFTRMFAFFRNHPATWKNAIRHNLSLHKCFVRVESEKGAVWTVDELEFRKKRSQRPSRCSNPTPGP
B7: THAP domain-containing protein 1 (Homo sapiens), Q9NVV9 (parent)
chain: MVQSCSAYGCKNRYDKDKPVSFHKFPLTRPSLCKEWEAAVRRKNFKPTKYSSICSEHFTPDCFKRECNNKLLKENAVPTIFLCTEPHDKKEDLLEPQEQLPPPPLPPPVSQVDAAIGLLMPPLQTPVNLSVFCDHNYTVEDTMHQRKRIHQLEQQVEKLRKKLKTAQQRCRRQERQLEKLKEVVHFQKEKDDVSERGYVILPNDYFEIVEVPA
B8: Emerin (Homo sapiens), P50402 (parent)
chain: MDNYADLSDTELTTLLRRYNIPHGPVVGSTRRLYEKKIFEYETQRRRLSPPSSSAASSYSFSDLNSTRGDADMYDLPKKEDALLYQSKGYNDDYYEESYFTTRTYGEPESAGPSRAVRQSVTSFPDADAFHHQVHDDDLLSSSEEECKDRERPMYGRDSAYQSITHYRPVSASRSSLDLSYYPTSSSTSFMSSSSSSSSWLTRRAIRPENRAPGAGLGQDRQVPLWGQLLLFLVFVIVLFFIYHFMQAEEGNPF
partner: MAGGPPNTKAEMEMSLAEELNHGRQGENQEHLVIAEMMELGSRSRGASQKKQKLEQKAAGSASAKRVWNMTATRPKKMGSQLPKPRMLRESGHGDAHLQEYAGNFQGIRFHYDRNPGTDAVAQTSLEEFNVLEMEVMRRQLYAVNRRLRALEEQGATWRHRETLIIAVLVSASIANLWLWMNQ

Variants of: B1
Details: with stam2_human STAM2, O75886

Row | Variant | effect of a mutation on the interaction
1 | C66W | disrupting interaction strength

Variants of: B2
Details: with CBY2, Q8NA61-2

Row | Variant | effect of a mutation on the interaction
2 | I96T | with no effect
3 | A135T | with no effect
4 | R190C | with no effect
5 | R186Q | with no effect

Variants of: B3
Details: with spg21_human SPG21, Q9NZD8

Row | Variant | effect of a mutation on the interaction
6 | W94R | disrupting interaction strength

Variants of: B4
Details: with ima4_human KPNA3, O00505
ima4_human KPNA3, O00505, sequence (O00505 whole entry): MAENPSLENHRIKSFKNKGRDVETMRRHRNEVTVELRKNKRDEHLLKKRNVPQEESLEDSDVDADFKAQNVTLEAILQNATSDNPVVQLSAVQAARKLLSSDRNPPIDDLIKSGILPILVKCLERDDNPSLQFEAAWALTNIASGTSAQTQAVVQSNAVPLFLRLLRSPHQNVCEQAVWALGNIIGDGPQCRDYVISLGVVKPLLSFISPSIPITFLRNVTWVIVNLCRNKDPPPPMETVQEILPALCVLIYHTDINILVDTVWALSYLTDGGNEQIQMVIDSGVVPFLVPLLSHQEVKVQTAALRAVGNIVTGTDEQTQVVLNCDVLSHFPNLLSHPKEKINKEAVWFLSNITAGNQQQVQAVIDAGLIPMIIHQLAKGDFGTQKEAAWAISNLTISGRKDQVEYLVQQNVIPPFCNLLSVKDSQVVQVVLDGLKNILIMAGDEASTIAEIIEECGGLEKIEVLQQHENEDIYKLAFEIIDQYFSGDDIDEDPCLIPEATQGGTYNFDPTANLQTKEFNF

Row | Variant | effect of a mutation on the interaction
7 | V118A | with no effect

Variants of: B5
Details: with caco2_human CALCOCO2, Q13137

Row | Variant | effect of a mutation on the interaction
8 | L107V | with no effect

Variants of: B6
Details: with RBPMS

Row | Variant | effect of a mutation on the interaction
9 | I363V | disrupting interaction strength
10 | Q70H | disrupting interaction strength
11 | G52V | with no effect
12 | P187L | with no effect

Variants of: B6
Details: with pr20e_human PRR20E

Row | Variant | effect of a mutation on the interaction
13 | I363V | disrupting interaction strength
14 | Q70H | disrupting interaction strength
15 | G52V | with no effect
16 | P187L | with no effect

Variants of: B7
Details: with RALYL

Row | Variant | effect of a mutation on the interaction
17 | F81L | with no effect

Variants of: B7
Details: with nup62_human NUP62, P37198
nup62_human NUP62, P37198, sequence (P37198 whole entry): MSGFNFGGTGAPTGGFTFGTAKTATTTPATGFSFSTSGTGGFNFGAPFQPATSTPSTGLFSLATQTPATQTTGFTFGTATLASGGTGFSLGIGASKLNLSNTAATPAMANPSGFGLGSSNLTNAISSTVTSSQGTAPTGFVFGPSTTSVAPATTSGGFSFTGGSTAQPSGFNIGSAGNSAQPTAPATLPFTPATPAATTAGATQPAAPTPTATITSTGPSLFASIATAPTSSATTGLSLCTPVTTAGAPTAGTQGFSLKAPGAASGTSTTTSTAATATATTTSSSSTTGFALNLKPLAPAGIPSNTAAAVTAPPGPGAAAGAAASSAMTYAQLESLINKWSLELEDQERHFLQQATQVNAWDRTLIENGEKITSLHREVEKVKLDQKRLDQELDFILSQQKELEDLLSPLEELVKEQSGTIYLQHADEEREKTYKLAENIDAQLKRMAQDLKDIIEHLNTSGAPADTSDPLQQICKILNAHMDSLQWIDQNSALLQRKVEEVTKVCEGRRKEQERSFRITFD

Row | Variant | effect of a mutation on the interaction
18 | F81L | with no effect

Variants of: B8
Details: with fate1_human FATE1, Q969F0

Row | Variant | effect of a mutation on the interaction
19 | P183H | with no effect
20 | P183T | with no effect
21 | S54F | with no effect
22 | D72V | with no effect

Source: IntAct's records for PubMed 25910212
